Measured values: patent US20230049152A1 (Genentech, published 2023)

Assays:
human CCR8 [1] = molecular target: T1, human CCR8 (human, UniProt P51685 1-355); assay: flow cytometry, CHO-huCCR8.Gna15 cells, relative to rb.Ab4
T1 construct: the assay field says which; also called hCCR8; huCCR8
Procedure: (§1) Evaluation of CCR8 binding of the humanized variants with a hIgG1 Fc involved screening by flow cytometry, and comparing the relative EC₅₀ and MFI on human CCR8 CHO cells to the parental rabbit antibodies. Specifically, stable CHO-huCCR8.Gna15 cells were stained with various concentrations (starting from 10 ug/ml or 66.66 nM, 1:4 serial dilution for total 8 concentration points) of Ab4 and Ab5 variants at 4° C. for 30 minutes, then washed twice with FACS buffer (PBS with 0.5% BSA and 0.2 mM EDTA) and followed by staining with AF647-anti-hIgG at 4° C. for 15 min. Cells were washed twice with FACS buffer, and re-suspended in FACS buffer with propidium iodide (0.5 ug/ml) and analyzed with iQue3 (Sartorius).

human CCR8 [2] = molecular target: T1, human CCR8; assay: flow cytometry, CHO-huCCR8.Gna15 cells, relative to rb.Ab5
Procedure: as §1

human CCR8 [3] = molecular target: T1, human CCR8; assay: as above; remark: listed apart in the source
Procedure: as §1

human CCR8 [4] = molecular target: T1, human CCR8; assay: flow cytometry, CHO-huCCR8.Gna15 cells, relative to rb.Ab4; remark: listed apart in the source
Procedure: as §1

B1: hu.Ab4.H1L2 (antibody, human IgG1, kappa)
heavy: not shown
light: DIQMTQSPSSLSASVGDRVTITCQASQSISSYLSWYQQKPGKRPKLLIYKASTLASGVPSRFSGSGSGTDFTLTISSLQPEDFATYYCQQGYTSSNIDNIFGGGTKVEIKRTVAAPSVFIFPPSDEQLKSGTASVVCLLNNFYPREAKVQWKVDNALQSGNSQESVTEQDSKDSTYSLSSTLTLSKADYEKHKVYACEVTHQGLSSPVTKSFNRGEC
For B1, the “Relative EC50” value (human CCR8 [1]) was 1.06 ratio and the “Relative MFI” value (human CCR8 [1]) was 0.73 ratio.

B2: hu.Ab4.H1L4 (antibody, human IgG1, kappa)
heavy: not shown
light: DIQMTQSPSSLSASVGDRVTITCQASQSISSYLSWYQQKPGKAPKLLIYKASTLASGVPSRFSGSGSGTDFTLTISSLQPEDFATYYCQQGYTSSNIDNIFGGGTKVEIKRTVAAPSVFIFPPSDEQLKSGTASVVCLLNNFYPREAKVQWKVDNALQSGNSQESVTEQDSKDSTYSLSSTLTLSKADYEKHKVYACEVTHQGLSSPVTKSFNRGEC
With B2 the “Relative EC50” value (human CCR8 [1]) was 1.04 ratio and the “Relative MFI” value (human CCR8 [1]) was 0.8 ratio.

B3: hu.Ab4.H1L3 (antibody, human IgG1, kappa)
heavy: not shown
light: DYQMTQSPSSLSASVGDRVTITCQASQSISSYLSWYQQKPGKAPKLLIYKASTLASGVPSRFSGSGSGTDFTLTISSLQPEDFATYYCQQGYTSSNIDNIFGGGTKVEIKRTVAAPSVFIFPPSDEQLKSGTASVVCLLNNFYPREAKVQWKVDNALQSGNSQESVTEQDSKDSTYSLSSTLTLSKADYEKHKVYACEVTHQGLSSPVTKSFNRGEC
With B3 the “Relative EC50” value (human CCR8 [1]) was 1.23 ratio and the “Relative MFI” value (human CCR8 [1]) was 1 ratio.

B4: rb.Ab5 (antibody, V domains shown)
VH: QSVEESGGRLVSPGTPLTLTCTVSGIDLSTYAMGWVRQAPGKGLEWIGLIHRSGRTYYATWAKGRFTISKTSSTTVDLKITSPTTEDTATYFCTRSYPDYSATASIWGPGTLVTVSS
VL: DIVVTQTPASVEAAVGGTVTIKCQASENIANALAWYQQKSGQPPMFLIYGASNLASGVSSRFKGSGSGTEFTLTISDLECADAAVYYCQCAYYGNSFVEGTFGGGTEVVVK
notes: Rabbit variable regions; also called parental rabbit antibody Ab5
B4 was tested, and the “Relative EC50” value (human CCR8 [2]) was 1 ratio, the “Relative MFI” value (human CCR8 [2]) was 1 ratio and the “Relative EC50” value (human CCR8 [3]) was 1 ratio. The “Relative MFI” value (human CCR8 [3]) was 1 ratio.

B5: hu.Ab5.H1L2 (antibody, human IgG1, kappa)
heavy: not shown
light: DIQMTQSPSSLSASVGDRVTITCQASENIANALAWYQQKPGKPPKFLIYGASNLASGVPSRFSGSGSGTDFTFTISSLQPEDIATYYCQQAYYGNSFVEGTFGGGTKVEIKRTVAAPSVFIFPPSDEQLKSGTASVVCLLNNFYPREAKVQWKVDNALQSGNSQESVTEQDSKDSTYSLSSTLTLSKADYEKHKVYACEVTHQGLSSPVTKSFNRGEC
In the case of B5, the “Relative EC50” value (human CCR8 [2]) is reported as 1.4 ratio and the “Relative MFI” value (human CCR8 [2]) is reported as 0.79 ratio.

B6: hu.Ab5.H1L3 (antibody, human IgG1, kappa, V domains shown)
VH: EQQLLESGGGLVQPGGSLRLSCAVSGIDLSTYAMGWVRQAPGKGLEWIGLIHRSGRTYYATWAKGRFTISKDSSKTTVYLQMNSLRAEDTAVYFCTRSYPDYSATASIWGPGTTVTVSS
VL: DIQVTQSPSSLSASVGDRVTITCQASENIANALAWYQQKPGKAPKFLIYGASNLASGVPSRFSGSGSGTDFTFTISSLQPEDIATYYCQQAYYGNSFVEGTFGGGTKVEIKR
In the case of B6, the “Relative EC50” value (human CCR8 [2]) is reported as 1.5 ratio and the “Relative MFI” value (human CCR8 [2]) is reported as 0.81 ratio.

B7: hu.Ab5.H1L5 (antibody, human IgG1, kappa, V domains shown)
VH: EQQLLESGGGLVQPGGSLRLSCAVSGIDLSTYAMGWVRQAPGKGLEWIGLIHRSGRTYYATWAKGRFTISKDSSKTTVYLQMNSLRAEDTAVYFCTRSYPDYSATASIWGPGTTVTVSS
VL: DIQMTQSPSSLSASVGDRVTITCQASENIANALAWYQQKPGKAPKLLIYGASNLASGVPSRFSGSGSGTDFTFTISSLQPEDIATYYCQQAYYGNSFVEGTFGGGTKVEIKR
With B7 the “Relative EC50” value (human CCR8 [2]) was 0.3 ratio and the “Relative MFI” value (human CCR8 [2]) was 0.31 ratio.

B8: hu.Ab5.H1L4 (antibody, human IgG1, kappa, V domains shown)
VH: EQQLLESGGGLVQPGGSLRLSCAVSGIDLSTYAMGWVRQAPGKGLEWIGLIHRSGRTYYATWAKGRFTISKDSSKTTVYLQMNSLRAEDTAVYFCTRSYPDYSATASIWGPGTTVTVSS
VL: DIQVTQSPSSLSASVGDRVTITCQASENIANALAWYQQKPGKPPKLLIYGASNLASGVPSRFSGSGSGTDFTFTISSLQPEDIATYYCQQAYYGNSFVEGTFGGGTKVEIKR
For B8, the “Relative EC50” value (human CCR8 [2]) was 1.7 ratio and the “Relative MFI” value (human CCR8 [2]) was 0.51 ratio.

B9: rb.Ab4 (antibody, V domains shown)
VH: QSVEESGGRLVTPGTPLTLTCTVSGFSLSNYAMIWVRQAPGEGLEWVGTISLGGYTYYANWAKGRFTISKTSTTVDLKISSPTTEDTATYFCARARWSTDSAIYTYAFDPWGPGTLVTVSS
VL: AYDMTQTPASVEVAVGGTVTIKCQASQSISSYLSWYQQKPGQRPELLIYKASTLASGVSSRFKGSGSGTQFTLTISDLECADAATYYCQQGYTSSNIDNIFGGGTEVVVK
notes: Rabbit variable regions; also called parental rabbit antibody Ab4
For B9, the “Relative EC50” value (human CCR8 [1]) was 1 ratio, the “Relative MFI” value (human CCR8 [1]) was 1 ratio and the “Relative EC50” value (human CCR8 [4]) was 1 ratio. For the same binder, the “Relative MFI” value (human CCR8 [4]) was 1 ratio.
